Assay [1] addresses T1, recombinant, His-tagged PSMA produced by transfected CHO cells (Homo sapiens, UniProt Q04609).
T1 construct: prostate-specific membrane antigen (PSMA; FOLH1); probably the soluble extracellular part (surmised); source: transfected CHO cells
The assay can be described thus: SPR; chimeric antibodies immobilised on a Protein A coated sensor chip; His-tagged PSMA flowed; Biacore X, 25°C, 30 μl/min. The conditions noted are these: both partners purified.

Assay [2] deals with T2, PSMA in lysates of 22Rv1^high cells and of lung SCC tumor samples (Homo sapiens, UniProt Q04609-1).
T2 construct: prostate-specific membrane antigen (PSMA; FOLH1), human, endogenous; also called FOLH1; source: endogenous, lysates of 22Rv1^high cells and of slices of lung squamous cell carcinoma tumors
T2 sequence (Q04609 whole entry): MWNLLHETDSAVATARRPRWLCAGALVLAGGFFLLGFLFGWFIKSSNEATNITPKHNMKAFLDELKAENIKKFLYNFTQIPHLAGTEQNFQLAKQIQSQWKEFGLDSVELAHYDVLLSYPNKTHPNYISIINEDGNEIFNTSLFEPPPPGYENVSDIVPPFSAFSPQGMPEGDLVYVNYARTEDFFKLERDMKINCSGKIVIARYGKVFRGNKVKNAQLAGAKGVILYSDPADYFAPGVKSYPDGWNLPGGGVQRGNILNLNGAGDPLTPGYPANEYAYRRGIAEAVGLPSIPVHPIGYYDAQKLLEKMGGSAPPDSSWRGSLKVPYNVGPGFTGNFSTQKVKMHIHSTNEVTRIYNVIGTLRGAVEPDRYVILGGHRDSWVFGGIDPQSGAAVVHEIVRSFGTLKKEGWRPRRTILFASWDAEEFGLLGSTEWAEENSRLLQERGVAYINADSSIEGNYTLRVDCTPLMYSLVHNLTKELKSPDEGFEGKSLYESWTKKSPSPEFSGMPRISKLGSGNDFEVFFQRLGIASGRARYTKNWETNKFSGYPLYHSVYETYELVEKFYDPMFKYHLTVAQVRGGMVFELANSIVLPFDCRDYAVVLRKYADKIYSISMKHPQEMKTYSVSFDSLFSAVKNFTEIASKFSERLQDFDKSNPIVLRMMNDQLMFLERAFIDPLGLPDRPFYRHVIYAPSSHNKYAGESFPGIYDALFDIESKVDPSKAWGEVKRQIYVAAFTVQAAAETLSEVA
The assay can be described thus: co-IP; immunoprecipitation of PSMA from 22Rv1^high cell lysate with chimeric antibody on protein G agarose beads; Western blot with murine J591. The conditions noted are these: one partner purified. (In western blotting, separated proteins are transferred to a membrane and probed.)

T1 sequence (Q04609 56-750): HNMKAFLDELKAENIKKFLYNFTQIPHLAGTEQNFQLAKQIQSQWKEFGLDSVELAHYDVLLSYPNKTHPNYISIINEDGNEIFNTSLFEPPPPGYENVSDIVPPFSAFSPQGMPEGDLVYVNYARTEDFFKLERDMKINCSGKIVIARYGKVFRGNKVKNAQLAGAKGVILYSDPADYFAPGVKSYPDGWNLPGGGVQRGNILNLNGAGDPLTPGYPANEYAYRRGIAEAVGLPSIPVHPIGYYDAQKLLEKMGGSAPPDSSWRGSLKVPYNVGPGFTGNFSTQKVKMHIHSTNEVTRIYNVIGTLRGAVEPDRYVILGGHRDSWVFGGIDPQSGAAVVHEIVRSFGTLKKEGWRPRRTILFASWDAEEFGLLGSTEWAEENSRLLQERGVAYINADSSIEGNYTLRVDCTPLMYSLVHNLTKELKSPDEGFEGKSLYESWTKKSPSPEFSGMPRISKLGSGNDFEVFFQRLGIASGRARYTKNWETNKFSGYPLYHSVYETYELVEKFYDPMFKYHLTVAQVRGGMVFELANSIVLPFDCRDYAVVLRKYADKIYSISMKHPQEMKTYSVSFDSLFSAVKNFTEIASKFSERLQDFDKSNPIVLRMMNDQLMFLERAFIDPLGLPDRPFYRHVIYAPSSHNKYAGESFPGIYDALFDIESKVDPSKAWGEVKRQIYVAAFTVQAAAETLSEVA

B1: chimeric J591 antibody (murine J591 variable regions fused to human constant regions) (antibody, V domains shown)
VH: EVQLQQSGPELVKPGTSVRISCKTSGYTFTEYTIHWVKQSHGKSLEWIGNINPNNGGTTYNQKFEDKATLTVDKSSSTAYMELRSLTSEDSAVYYCAAGWNFDYWGQGTTLTVSS
VL: DIVMTQSHKFMSTSVGDRVSIICKASQDVGTAVDWYQQKPGQSPKLLIYWASTRHTGVPDRFTGSGSGTDFTLAITNVQSEDLADYFCQQYNSYPLTFGAGTKLEIK
B1: the binding result in assay [1] and in assay [2] was “binds” each time.

The values above are taken from PMC7863392 (EMBO Molecular Medicine, 2020).
